Results from article PMC11847480.

Molecular target: gp130 (human (endogenous in TF-1)) (UniProt P40189)
Sequence (P40189 23-918): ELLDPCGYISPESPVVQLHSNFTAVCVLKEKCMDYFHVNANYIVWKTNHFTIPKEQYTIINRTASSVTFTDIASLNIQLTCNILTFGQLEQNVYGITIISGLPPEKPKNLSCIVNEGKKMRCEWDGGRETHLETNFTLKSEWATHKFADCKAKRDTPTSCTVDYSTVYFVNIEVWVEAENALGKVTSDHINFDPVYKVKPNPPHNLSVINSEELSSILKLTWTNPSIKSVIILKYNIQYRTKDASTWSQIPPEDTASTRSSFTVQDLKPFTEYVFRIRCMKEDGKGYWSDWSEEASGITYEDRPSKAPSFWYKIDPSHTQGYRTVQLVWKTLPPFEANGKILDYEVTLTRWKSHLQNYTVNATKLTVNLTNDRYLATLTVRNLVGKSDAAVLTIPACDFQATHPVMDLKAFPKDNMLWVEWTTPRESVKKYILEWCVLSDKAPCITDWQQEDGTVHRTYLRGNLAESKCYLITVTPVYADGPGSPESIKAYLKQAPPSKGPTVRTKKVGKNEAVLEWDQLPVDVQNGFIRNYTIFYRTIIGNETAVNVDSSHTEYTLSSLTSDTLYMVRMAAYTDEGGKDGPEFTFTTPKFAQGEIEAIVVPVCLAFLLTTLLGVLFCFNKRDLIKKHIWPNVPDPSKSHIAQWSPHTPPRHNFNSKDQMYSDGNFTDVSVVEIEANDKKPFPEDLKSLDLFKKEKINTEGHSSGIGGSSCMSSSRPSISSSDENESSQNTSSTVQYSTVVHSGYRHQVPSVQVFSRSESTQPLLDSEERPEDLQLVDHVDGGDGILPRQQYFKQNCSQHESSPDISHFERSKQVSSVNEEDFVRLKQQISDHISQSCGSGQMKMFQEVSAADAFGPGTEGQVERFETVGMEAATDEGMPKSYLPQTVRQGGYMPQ

LIF with truncation of the N-terminal region, sequence (P15018 23-202): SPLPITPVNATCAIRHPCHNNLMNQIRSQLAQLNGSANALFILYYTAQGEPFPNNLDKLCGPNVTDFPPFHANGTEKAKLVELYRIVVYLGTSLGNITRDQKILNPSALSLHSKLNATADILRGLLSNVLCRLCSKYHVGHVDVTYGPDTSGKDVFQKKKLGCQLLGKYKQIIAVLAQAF

TF-1 cell proliferation, fold change of EC50 against wild-type LIF | TF-1 cell proliferation activity against wild-type LIF | Substance
3 fold | – | LIF 2E (R37E and H38E) (from UniProt P15018 23-202) (ligand)
4 fold | – | LIF 3E (R37E, H38E and H41E) (from UniProt P15018 23-202) (ligand)
– | 1 fold | LIF with truncation of the N-terminal region (from UniProt P15018 23-202) (ligand)
